Values joined by “and” are separate entries in the source; they are usually repeats but may differ in a detail not shown here. Equal values may be shown once.

Assay in all cases: BLI; Octet RED384; MAb (1 µg/mL) captured on anti-human IgG Fc (AHC) biosensors; RSV G^ecto proteins in solution, 40 nM 2-fold serially diluted to 0.63 nM (higher starting concentrations for CX4C); PBS pH 7.4, 0.05% Tween 20, 1% BSA; association 300 s, dissociation 600 s; global 1:1 fit; in duplicate
Experiment [1] concerns the target human anti-RSV G monoclonal antibody 2D10 (human).
Experiment [2] deals with human anti-RSV G monoclonal antibody 3D3 (human).
The target in experiment [3] is human anti-RSV G monoclonal antibody 3G12 (human).
Experiment [4] concerns the target T1, RSV G ectodomain wild-type protein (RSV strain A2, residues 64 to 298) (Human respiratory syncytial virus A, …, UniProt P03423).
T1 construct: glycosylated, runs at about 90 kDa on SDS-PAGE; also called RSV G^ecto WT; wild-type RSV G
The conditions noted are these: both partners purified.

“RSV G ectodomain S177Q mutant protein (residues 64 to 298) (from UniProt P03423 64-298) (domain or fragment)”: in experiment [1], the Kd is 0.605 nM and 0.485 nM; the koff was 0.000225 s⁻¹ and 0.00015 s⁻¹; the kon was 371000 M⁻¹ s⁻¹ and 310000 M⁻¹ s⁻¹. Further, in experiment [2], the Kd was 0.538 nM and 0.264 nM; the koff is 0.000199 s⁻¹ and 0.000109 s⁻¹; the kon was 369000 M⁻¹ s⁻¹ and 414000 M⁻¹ s⁻¹. Moreover, in experiment [3], the Kd is 1.88 nM and 2.28 nM; the koff is 0.000447 s⁻¹ and 0.000528 s⁻¹; the kon was 238000 M⁻¹ s⁻¹ and 232000 M⁻¹ s⁻¹.
For “RSV G ectodomain S177R mutant protein (residues 64 to 298) (from UniProt P03423 64-298) (domain or fragment)”, in experiment [1], the Kd was below 0.001 nM; the koff is below 1e-07 s⁻¹; the kon is 318000 M⁻¹ s⁻¹ and 253000 M⁻¹ s⁻¹. For the same molecule, in experiment [2], the equilibrium dissociation constant (Kd) is 0.422 nM and 0.57 nM; the koff was 0.000104 s⁻¹ and 0.000151 s⁻¹; the kon is 247000 M⁻¹ s⁻¹ and 265000 M⁻¹ s⁻¹. For the same molecule, in experiment [3], the Kd is 4.34 nM and 4.6 nM; the koff was 0.000581 s⁻¹ and 0.000672 s⁻¹; the kon was 134000 M⁻¹ s⁻¹ and 146000 M⁻¹ s⁻¹.

B1: human anti-RSV G monoclonal antibody 3G12 (antibody, V domains shown)
VH: QLQLQESGPGLVKPSETLSLTCTVSGGSISSSNYYWGWIRQPPGKGLEWIASIHDSGSIYYNPSLRSRVTISVDTSKNQFSLKLSSVTAADTAVYYCARHLVWFGELRNNWFDPWGQGTLVTVAS
VL: EIVMTQSPATLSVSPGERATLSCRASQSVNSNLAWYQHKPGQAPRLLIYGASTRATGIPARFSGSGSGTDFTLTISSLQSEDFAVYYCQQYNNWPLFGPGTKVDLK
notes: heavy chain of human MAb 3G12; light chain of human MAb 3G12; Whole IgG, captured by anti-human IgG Fc biosensors; also called MAb 3G12
Consider B1, for which, in experiment [4], the Kd is 0.26 nM and 0.262 nM; the koff was 6.55e-05 s⁻¹ and 5.19e-05 s⁻¹; the on-rate constant (kon) is 252000 M⁻¹ s⁻¹ and 198000 M⁻¹ s⁻¹.

B2: human anti-RSV G monoclonal antibody 3D3 (antibody, V domains shown)
VH: EEQLVESGGGLVQPGRSLRLSCVGSGLRFEEHAMHWVRQAPGRGLEWVSGISWNSGSVGYADSVKGRFTTSRDNAKDILFLEMNTLRSEDTALYFCAIMVATTKNDFHYYKDVWGKGTTVTVSS
VL: QIVLTQSPATLSLSPGERATLSCRASQSVSNHLAWYQQKPGQAPRLLIYETSNRATGIPPRFSGSGSGTDFTLTISSLEPEDFAVYYCQQRNNWYTFGQGTKLEIK
notes: heavy chain of human MAb 3D3; light chain of human MAb 3D3; Whole IgG, captured by anti-human IgG Fc biosensors; also called MAb 3D3
Take B2: in experiment [4], the Kd is below 0.001 nM; the koff is below 1e-07 s⁻¹; the kon is 426000 M⁻¹ s⁻¹ and 431000 M⁻¹ s⁻¹.

B3: human anti-RSV G monoclonal antibody 2D10 (antibody, V domains shown)
VH: QVQLVQSGPEVKKPGASVRLSCKASGYVFTNYGVSWVRQAPGQGLEWMGWSSPYNGNTYYAQKLKARVTMTTDTSTNTAYMELRSLRSDDTAVYYCGRDMLGVVQAVAGPFDSWGQGTLVTVSS
VL: DTPMTQSPSSVSASVGDRVTISCRASQGISNSLAWYQQKLGKAPQLLIYAASSLQSGVPSRFSGSGSGTDFTLTISSLQPEDFATYYCQQTNTFPFTFGPGTKVEVR
notes: heavy-chain variable region of human MAb 2D10; human IgG1 heavy-chain constant region as in the pCMVR VRC01 heavy-chain vector (AIDS Reagent Program); light-chain variable region of human MAb 2D10; light-chain constant region of the pCMVR VRC01 light-chain vector; IgG1; variable regions of 2D10 put in place of those of antibody VRC01 in the pCMVR VRC01 vectors; also called MAb 2D10
Regarding B3, in experiment [4], the Kd was below 0.001 nM; the koff was below 1e-07 s⁻¹; the kon was 370000 M⁻¹ s⁻¹ and 383000 M⁻¹ s⁻¹.

The values above are taken from paper PMC9006937, “Structure-Based Design and Antigenic Validation of Respiratory Syncytial Virus G Immunogens” (Journal of Virology, 2022).
